Assay: western blot, endogenous PD-L1 in RBMS1-depleted MDA-MB-231, ±IFN-γ
Details: glycan lost; control: untreated

Substance: PD-L1 (programmed death ligand 1; B7-H1, CD274): tunicamycin
- other: dependence of PD-L1 protein level on RBMS1: abolishes

— article PMC9613699
